Test results: patent publication US20180011102A1 (University of Texas, published 2018)

T1: SFB-PGK1 Δ1-57 (human, UniProt P00558 58-417)
T1 construct: also called PGK1 Δ1-57 mutant; not shown: C-terminal SFB (S-Flag-Biotin) tag and any linker or added start Met of the pcDNA6/SFB construct
T1 sequence: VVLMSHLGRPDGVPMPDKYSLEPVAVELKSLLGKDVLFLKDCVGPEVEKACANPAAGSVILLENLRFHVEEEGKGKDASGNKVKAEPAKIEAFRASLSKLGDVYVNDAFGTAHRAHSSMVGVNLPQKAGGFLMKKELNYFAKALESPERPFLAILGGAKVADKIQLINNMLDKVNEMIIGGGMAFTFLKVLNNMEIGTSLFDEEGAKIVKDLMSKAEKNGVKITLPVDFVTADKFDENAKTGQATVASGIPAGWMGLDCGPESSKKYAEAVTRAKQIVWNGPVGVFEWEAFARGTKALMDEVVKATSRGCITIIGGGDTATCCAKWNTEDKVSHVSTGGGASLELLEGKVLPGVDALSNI

T2: SFB-PGK1 R39/K41A (human, UniProt P00558 1-417)
T2 construct: not shown: SFB (S-Flag-Biotin) tag, pcDNA6/SFB vector
T2 sequence (looked up): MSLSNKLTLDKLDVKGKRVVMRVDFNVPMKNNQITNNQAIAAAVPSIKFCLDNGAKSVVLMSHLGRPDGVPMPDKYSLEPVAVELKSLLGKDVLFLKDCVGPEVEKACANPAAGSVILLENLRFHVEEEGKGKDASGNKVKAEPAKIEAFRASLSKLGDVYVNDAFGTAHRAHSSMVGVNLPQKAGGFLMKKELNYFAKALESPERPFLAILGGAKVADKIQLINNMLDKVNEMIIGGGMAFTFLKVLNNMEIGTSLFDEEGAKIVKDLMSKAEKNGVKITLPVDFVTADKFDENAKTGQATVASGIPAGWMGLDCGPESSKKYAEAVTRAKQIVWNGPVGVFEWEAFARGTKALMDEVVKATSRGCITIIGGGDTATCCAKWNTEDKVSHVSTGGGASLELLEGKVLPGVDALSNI

B1: endogenous PDHK1 of U87 cell mitochondria (enzyme)
chain: not shown
notes: also called pyruvate dehydrogenase kinase 1
B2: endogenous TOM20 of U87 cells (receptor, human, UniProt Q15388 1-145, looked up)
chain: MVGRNSAIAAGVCGALFIGYCIYFDRKRRSDPNFKNRLRERRKKQKLAKERAGLSKLPDLKDAEAVQKFFLEEIQLGEELLAQGEYEKGVDHLTNAIAVCGQPQQLLQVLQQTLPPPVFQMLLTKLPTISQRIVSAQSLAEDDVE
B3: endogenous PGK1 (phosphoglycerate kinase 1) of U87 human GBM cells (enzyme)
chain: SLSNKLTLDKLDVKGKRVVMRVDFNVPMKNNQITNNQRIKAAVPSIKFCLDNGAKSVVLMSHLGRPDGVPMPDKYSLEPVAVELKSLLGKDVLFLKDCVGPEVEKACANPAAGSVILLENLRFHVEEEGKGKDASGNKVKAEPAKIEAFRASLSKLGDVYVNDAFGTAHRAHSSMVGVNLPQKAGGFLMKKELNYFAKALESPERPFLAILGGAKVADKIQLINNMLDKVNEMIIGGGMAFTFLKVLNNMEIGTSLFDEEGAKIVKDLMSKAEKNGVKITLPVDFVTADKFDENAKTGQATVASGIPAGWMGLDCGPESSKKYAEAVTRAKQIVWNGPVGVFEWEAFARGTKALMDEVVKATSRGCITIIGGGDTATCCAKWNTEDKVSHVSTGGGASLELLEGKVLPGVDALSNI
notes: Endogenous protein from cell lysates
B4: SFB-PDHK3 expressed in U87 cells (enzyme)
chain: not shown
notes: not shown: SFB tag, pcDNA6/SFB vector
B5: SFB-PDHK4 expressed in U87 cells (enzyme)
chain: not shown
notes: as for B4

Tests used:
[1] = target: B3; test: PGK1 immunoprecipitated from mitochondria of U87 cells, anti-PDHK1 immunoblot (FIG. 4B)
SFB-PGK1 Δ1-57 = target: T1, SFB-PGK1 Δ1-57; test: streptavidin pull-down from U87 cells (FIG. 3D)
SFB-PGK1 R39/K41A = target: T2, SFB-PGK1 R39/K41A; test: streptavidin pull-down from U87 cells (FIG. 3E)
[2] = target: SFB-PDHK2 expressed in U87 cells (human, UniProt Q15119 1-407); test: streptavidin pull-down from mitochondrial fractions of U87 cells (FIG. 14C)
[3] = target: B3; test: as above

B1: binds [1].

B2: no binding (SFB-PGK1 Δ1-57); no binding (SFB-PGK1 R39/K41A).

B3: no binding [2].

B4: no binding [3].

B5: no binding [3].
